The results in this text go back to patent US20220195051A1 (UNIVERSIT T Z RICH, published 2022).

The assay concerns the target T1, human recombinant biotinylated FcRn (Immunitrack) (human, UniProt P55899 24-297, biotinylated (site not told)).
T1 construct: Immobilised on a ProteOn NLC chip for SPR at pH 6.0; also called human FcRn; hFcRn
In words: SPR, human FcRn immobilised, IL-12Fc variants in solution, pH 6.0.

T1 sequence (P55899 24-297): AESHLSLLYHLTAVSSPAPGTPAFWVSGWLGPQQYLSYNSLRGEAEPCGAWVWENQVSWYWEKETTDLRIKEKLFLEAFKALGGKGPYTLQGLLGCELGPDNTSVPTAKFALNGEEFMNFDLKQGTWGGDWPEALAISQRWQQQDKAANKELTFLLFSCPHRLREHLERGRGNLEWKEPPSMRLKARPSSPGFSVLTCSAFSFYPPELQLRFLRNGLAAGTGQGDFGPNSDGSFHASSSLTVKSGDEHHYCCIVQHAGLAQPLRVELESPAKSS
Method: SPR was performed using the ProteOn XPR36 System (Bio-Rad Laboratories, Inc.), coating human recombinant biotinylated FcRn (Immunitrack) on a ProteOn NLC sensor chip to approximately 80 response units (RU). […] The dissociation time was 600 s. Analysis was performed using the ProteOn Manager software (Bio-Rad Laboratories, Inc.) using data normalization to the injection time, interspot background removal and build-in artefact removal function. Kd were calculated using the equilibrium analysis model.

B1: human IL-12Fc NHQ (Fc fusion)
chain: IWELKKDVYVVELDWYPDAPGEMVVLTCDTPEEDGITWTLDQSSEVLGSGKTLTIQVKEFGDAGQYTCHKGGEVLSHSLLLLHKKEDGIWSTDILKDQKEPKNKTFLRCEAKNYSGRFTCWWLTTISTDLTFSVKSSRGSSDPQGVTCGAATLSAERVRGDNKEYEYSVECQEDSACPAAEESLPIEVMVDAVHKLKYENYTSSFFIRDIIKPDPPKNLQLKPLKNSRQVEVSWEYPDTWSTPHSYFSLTFCVQVQGKSKREKKDRVFTDKTSATVICRKNASISVRAQDRYYSSSWSEWASVPCSRNLPVATPDPGMFPCLHHSQNLLRAVSNMLQKARQTLEFYPCTSEEIDHEDITKDKTSTVEACLPLELTKNESCLNSRETSFITNGSCLASRKTSFMMALCLSSIYEDLKMYQVEFKTMNAKLLMDPKRQIFLDQNMLAVIDELMQALNFNSETVPQKSSLEEPDFYKTKIKLCILLHAFRIRAVTIDRVMSYLNASKVDKRVESKYGPPCPPCPAPEFLGGPSVFLFPPKPKDTLMNSRTPEVTCVVVDVSQEDPEVQFNWYVDGVEVHNAKTKPREEQFNSTYRVVSVLTVLHQDWLNGKEYKCKVSNKGLPSSIEKTISKAKGQPREPQVYTLPPSPEEMTKNQVSLTCLVKGFYPSDIAVEWESNGQPENNYKTTPPVLDSDGSFFLYSRLTVDKSRWQEGNVFSCSVMHEALHNQYTQKSLSLSLGK
notes: mature; As m1 with I253N and H435Q (EU) in the Fc; also called NHQ variant; not shown: Gly-Ser-linker between p40 and p35
B1: the “fold reduction of affinity against IL-12Fc WT” value is around 8 fold.
